Numbered stars: 1 amine (or outer) side, 2 acyl side, 3 side chain; on linkers, the order of the positions; unused ones are H or OH. Bridge positions count the residues as written; N and C are the ends. Side chains are listed from the residue outwards. Ends that are not written are not given here. * marks the point of attachment. C20 diacid = O=C(O)CCCCCCCCCCCCCCCCCCC(=O)*; γGlu = O=C(O)[C@H](CCC(=O)[*:2])N[*:1]; AEEA = NCCOCCOCC(=O)O

The term IC50 denotes the concentration needed to halve the response being measured.

The chains are these.
T1: human amylin receptor (amylin 3(a) receptor: human calcitonin receptor with RAMP-3) (human, UniProt P30988 25-474; O60896 24-148)
T1 construct: whole, on cells; also called hAmylin-R; hAmylinR
T1 sequence (looked up) 1: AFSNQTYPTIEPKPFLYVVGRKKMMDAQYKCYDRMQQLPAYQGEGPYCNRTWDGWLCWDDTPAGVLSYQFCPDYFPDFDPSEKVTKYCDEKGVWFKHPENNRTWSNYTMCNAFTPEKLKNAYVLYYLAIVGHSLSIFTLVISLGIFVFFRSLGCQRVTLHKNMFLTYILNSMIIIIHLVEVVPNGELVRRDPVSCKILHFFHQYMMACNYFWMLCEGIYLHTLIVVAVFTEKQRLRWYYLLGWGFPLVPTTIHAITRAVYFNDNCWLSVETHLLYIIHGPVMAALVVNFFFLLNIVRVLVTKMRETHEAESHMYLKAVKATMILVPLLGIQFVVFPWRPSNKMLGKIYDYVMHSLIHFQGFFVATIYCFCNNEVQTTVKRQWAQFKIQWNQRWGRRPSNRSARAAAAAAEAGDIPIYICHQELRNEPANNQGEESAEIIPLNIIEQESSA
T1 sequence (looked up) 2: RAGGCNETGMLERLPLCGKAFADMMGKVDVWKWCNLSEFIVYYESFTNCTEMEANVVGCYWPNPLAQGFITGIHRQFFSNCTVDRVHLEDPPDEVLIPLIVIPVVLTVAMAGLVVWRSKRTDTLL

B1: N^ε1-[2-[2-[2-[[(4S)-4-carboxy-4-(19-carboxynonadecanoylamino)butanoyl]amino]ethoxy]ethoxy]acetyl]-[Gly14,Arg17,Pro21,Pro27,Pro31]-h-amylin (peptide)
peptide: K([AEEA-γGlu-C20 diacid])CNTATCATQRLAGFLRHSSPNFGAIPSSTPVGSNTY-NH2
modifications: disulfide 2-7; N-terminus assumed
SMILES: CC[C@H](C)[C@H](NC(=O)[C@H](C)NC(=O)CNC(=O)[C@H](Cc1ccccc1)NC(=O)[C@H](CC(N)=O)NC(=O)[C@@H]1CCCN1C(=O)[C@H](CO)NC(=O)[C@H](CO)NC(=O)[C@H](Cc1c[nH]cn1)NC(=O)[C@H](CCCNC(=N)N)NC(=O)[C@H](CC(C)C)NC(=O)[C@H](Cc1ccccc1)NC(=O)CNC(=O)[C@H](C)NC(=O)[C@H](CC(C)C)NC(=O)[C@H](CCCNC(=N)N)NC(=O)[C@H](CCC(N)=O)NC(=O)[C@@H](NC(=O)[C@H](C)NC(=O)[C@@H]1CSSC[C@H](NC(=O)[C@@H](N)CCCCNC(=O)COCCOCCNC(=O)CC[C@H](NC(=O)CCCCCCCCCCCCCCCCCCC(=O)O)C(=O)O)C(=O)N[C@@H](CC(N)=O)C(=O)N[C@@H]([C@@H](C)O)C(=O)N[C@@H](C)C(=O)N[C@@H]([C@@H](C)O)C(=O)N1)[C@@H](C)O)C(=O)N1CCC[C@H]1C(=O)N[C@@H](CO)C(=O)N[C@@H](CO)C(=O)N[C@H](C(=O)N1CCC[C@H]1C(=O)N[C@H](C(=O)NCC(=O)N[C@@H](CO)C(=O)N[C@@H](CC(N)=O)C(=O)N[C@H](C(=O)N[C@@H](Cc1ccc(O)cc1)C(N)=O)[C@@H](C)O)C(C)C)[C@@H](C)O
notes: also called 71; compound 71
B2: N^ε1-[2-[2-[2-[[(4S)-4-carboxy-4-(19-carboxynonadecanoylamino)butanoyl]amino]ethoxy]ethoxy]acetyl]-[His14,Arg17,Pro21,Pro27,Pro34]-h-amylin (peptide)
peptide: K([AEEA-γGlu-C20 diacid])CNTATCATQRLAHFLRHSSPNFGAIPSSTNVGPNTY-NH2
modifications: disulfide 2-7; N-terminus assumed
SMILES: CC[C@H](C)[C@H](NC(=O)[C@H](C)NC(=O)CNC(=O)[C@H](Cc1ccccc1)NC(=O)[C@H](CC(N)=O)NC(=O)[C@@H]1CCCN1C(=O)[C@H](CO)NC(=O)[C@H](CO)NC(=O)[C@H](Cc1c[nH]cn1)NC(=O)[C@H](CCCNC(=N)N)NC(=O)[C@H](CC(C)C)NC(=O)[C@H](Cc1ccccc1)NC(=O)[C@H](Cc1c[nH]cn1)NC(=O)[C@H](C)NC(=O)[C@H](CC(C)C)NC(=O)[C@H](CCCNC(=N)N)NC(=O)[C@H](CCC(N)=O)NC(=O)[C@@H](NC(=O)[C@H](C)NC(=O)[C@@H]1CSSC[C@H](NC(=O)[C@@H](N)CCCCNC(=O)COCCOCCNC(=O)CC[C@H](NC(=O)CCCCCCCCCCCCCCCCCCC(=O)O)C(=O)O)C(=O)N[C@@H](CC(N)=O)C(=O)N[C@@H]([C@@H](C)O)C(=O)N[C@@H](C)C(=O)N[C@@H]([C@@H](C)O)C(=O)N1)[C@@H](C)O)C(=O)N1CCC[C@H]1C(=O)N[C@@H](CO)C(=O)N[C@@H](CO)C(=O)N[C@H](C(=O)N[C@@H](CC(N)=O)C(=O)N[C@H](C(=O)NCC(=O)N1CCC[C@H]1C(=O)N[C@@H](CC(N)=O)C(=O)N[C@H](C(=O)N[C@@H](Cc1ccc(O)cc1)C(N)=O)[C@@H](C)O)C(C)C)[C@@H](C)O
notes: also called 68; compound 68
B3: N^ε1-[2-[2-[2-[[(4S)-4-carboxy-4-(19-carboxynonadecanoylamino)butanoyl]amino]ethoxy]ethoxy]acetyl]-[His14,Arg17,Pro21,Pro27]-h-amylin (peptide)
peptide: K([AEEA-γGlu-C20 diacid])CNTATCATQRLAHFLRHSSPNFGAIPSSTNVGSNTY-NH2
modifications: disulfide 2-7; N-terminus assumed
SMILES: CC[C@H](C)[C@H](NC(=O)[C@H](C)NC(=O)CNC(=O)[C@H](Cc1ccccc1)NC(=O)[C@H](CC(N)=O)NC(=O)[C@@H]1CCCN1C(=O)[C@H](CO)NC(=O)[C@H](CO)NC(=O)[C@H](Cc1c[nH]cn1)NC(=O)[C@H](CCCNC(=N)N)NC(=O)[C@H](CC(C)C)NC(=O)[C@H](Cc1ccccc1)NC(=O)[C@H](Cc1c[nH]cn1)NC(=O)[C@H](C)NC(=O)[C@H](CC(C)C)NC(=O)[C@H](CCCNC(=N)N)NC(=O)[C@H](CCC(N)=O)NC(=O)[C@@H](NC(=O)[C@H](C)NC(=O)[C@@H]1CSSC[C@H](NC(=O)[C@@H](N)CCCCNC(=O)COCCOCCNC(=O)CC[C@H](NC(=O)CCCCCCCCCCCCCCCCCCC(=O)O)C(=O)O)C(=O)N[C@@H](CC(N)=O)C(=O)N[C@@H]([C@@H](C)O)C(=O)N[C@@H](C)C(=O)N[C@@H]([C@@H](C)O)C(=O)N1)[C@@H](C)O)C(=O)N1CCC[C@H]1C(=O)N[C@@H](CO)C(=O)N[C@@H](CO)C(=O)N[C@H](C(=O)N[C@@H](CC(N)=O)C(=O)N[C@H](C(=O)NCC(=O)N[C@@H](CO)C(=O)N[C@@H](CC(N)=O)C(=O)N[C@H](C(=O)N[C@@H](Cc1ccc(O)cc1)C(N)=O)[C@@H](C)O)C(C)C)[C@@H](C)O
notes: also called 69; compound 69
B4: N^ε1-[2-[2-[2-[[(4S)-4-carboxy-4-(19-carboxynonadecanoylamino)butanoyl]amino]ethoxy]ethoxy]acetyl]-[His14,Arg17,Pro21,Pro27,Pro31]-h-amylin (peptide)
peptide: K([AEEA-γGlu-C20 diacid])CNTATCATQRLAHFLRHSSPNFGAIPSSTPVGSNTY-NH2
modifications: disulfide 2-7; N-terminus assumed
SMILES: CC[C@H](C)[C@H](NC(=O)[C@H](C)NC(=O)CNC(=O)[C@H](Cc1ccccc1)NC(=O)[C@H](CC(N)=O)NC(=O)[C@@H]1CCCN1C(=O)[C@H](CO)NC(=O)[C@H](CO)NC(=O)[C@H](Cc1c[nH]cn1)NC(=O)[C@H](CCCNC(=N)N)NC(=O)[C@H](CC(C)C)NC(=O)[C@H](Cc1ccccc1)NC(=O)[C@H](Cc1c[nH]cn1)NC(=O)[C@H](C)NC(=O)[C@H](CC(C)C)NC(=O)[C@H](CCCNC(=N)N)NC(=O)[C@H](CCC(N)=O)NC(=O)[C@@H](NC(=O)[C@H](C)NC(=O)[C@@H]1CSSC[C@H](NC(=O)[C@@H](N)CCCCNC(=O)COCCOCCNC(=O)CC[C@H](NC(=O)CCCCCCCCCCCCCCCCCCC(=O)O)C(=O)O)C(=O)N[C@@H](CC(N)=O)C(=O)N[C@@H]([C@@H](C)O)C(=O)N[C@@H](C)C(=O)N[C@@H]([C@@H](C)O)C(=O)N1)[C@@H](C)O)C(=O)N1CCC[C@H]1C(=O)N[C@@H](CO)C(=O)N[C@@H](CO)C(=O)N[C@H](C(=O)N1CCC[C@H]1C(=O)N[C@H](C(=O)NCC(=O)N[C@@H](CO)C(=O)N[C@@H](CC(N)=O)C(=O)N[C@H](C(=O)N[C@@H](Cc1ccc(O)cc1)C(N)=O)[C@@H](C)O)C(C)C)[C@@H](C)O
notes: also called 61; compound 61
B5: N^ε1-[2-[2-[2-[[(4S)-4-carboxy-4-(19-carboxynonadecanoylamino)butanoyl]amino]ethoxy]ethoxy]acetyl]-[His14,Arg17,Pro21,Pro27,His34]-h-amylin (peptide)
peptide: K([AEEA-γGlu-C20 diacid])CNTATCATQRLAHFLRHSSPNFGAIPSSTNVGHNTY-NH2
modifications: disulfide 2-7; N-terminus assumed
SMILES: CC[C@H](C)[C@H](NC(=O)[C@H](C)NC(=O)CNC(=O)[C@H](Cc1ccccc1)NC(=O)[C@H](CC(N)=O)NC(=O)[C@@H]1CCCN1C(=O)[C@H](CO)NC(=O)[C@H](CO)NC(=O)[C@H](Cc1c[nH]cn1)NC(=O)[C@H](CCCNC(=N)N)NC(=O)[C@H](CC(C)C)NC(=O)[C@H](Cc1ccccc1)NC(=O)[C@H](Cc1c[nH]cn1)NC(=O)[C@H](C)NC(=O)[C@H](CC(C)C)NC(=O)[C@H](CCCNC(=N)N)NC(=O)[C@H](CCC(N)=O)NC(=O)[C@@H](NC(=O)[C@H](C)NC(=O)[C@@H]1CSSC[C@H](NC(=O)[C@@H](N)CCCCNC(=O)COCCOCCNC(=O)CC[C@H](NC(=O)CCCCCCCCCCCCCCCCCCC(=O)O)C(=O)O)C(=O)N[C@@H](CC(N)=O)C(=O)N[C@@H]([C@@H](C)O)C(=O)N[C@@H](C)C(=O)N[C@@H]([C@@H](C)O)C(=O)N1)[C@@H](C)O)C(=O)N1CCC[C@H]1C(=O)N[C@@H](CO)C(=O)N[C@@H](CO)C(=O)N[C@H](C(=O)N[C@@H](CC(N)=O)C(=O)N[C@H](C(=O)NCC(=O)N[C@@H](Cc1c[nH]cn1)C(=O)N[C@@H](CC(N)=O)C(=O)N[C@H](C(=O)N[C@@H](Cc1ccc(O)cc1)C(N)=O)[C@@H](C)O)C(C)C)[C@@H](C)O
notes: also called 80; compound 80
B6: N^ε1-[2-[2-[2-[[(4S)-4-carboxy-4-(19-carboxynonadecanoylamino)butanoyl]amino]ethoxy]ethoxy]acetyl]-[His14,Arg17,Pro21,Pro27,Arg34]-h-amylin (peptide)
peptide: K([AEEA-γGlu-C20 diacid])CNTATCATQRLAHFLRHSSPNFGAIPSSTNVGRNTY-NH2
modifications: disulfide 2-7; N-terminus assumed
SMILES: CC[C@H](C)[C@H](NC(=O)[C@H](C)NC(=O)CNC(=O)[C@H](Cc1ccccc1)NC(=O)[C@H](CC(N)=O)NC(=O)[C@@H]1CCCN1C(=O)[C@H](CO)NC(=O)[C@H](CO)NC(=O)[C@H](Cc1c[nH]cn1)NC(=O)[C@H](CCCNC(=N)N)NC(=O)[C@H](CC(C)C)NC(=O)[C@H](Cc1ccccc1)NC(=O)[C@H](Cc1c[nH]cn1)NC(=O)[C@H](C)NC(=O)[C@H](CC(C)C)NC(=O)[C@H](CCCNC(=N)N)NC(=O)[C@H](CCC(N)=O)NC(=O)[C@@H](NC(=O)[C@H](C)NC(=O)[C@@H]1CSSC[C@H](NC(=O)[C@@H](N)CCCCNC(=O)COCCOCCNC(=O)CC[C@H](NC(=O)CCCCCCCCCCCCCCCCCCC(=O)O)C(=O)O)C(=O)N[C@@H](CC(N)=O)C(=O)N[C@@H]([C@@H](C)O)C(=O)N[C@@H](C)C(=O)N[C@@H]([C@@H](C)O)C(=O)N1)[C@@H](C)O)C(=O)N1CCC[C@H]1C(=O)N[C@@H](CO)C(=O)N[C@@H](CO)C(=O)N[C@H](C(=O)N[C@@H](CC(N)=O)C(=O)N[C@H](C(=O)NCC(=O)N[C@@H](CCCNC(=N)N)C(=O)N[C@@H](CC(N)=O)C(=O)N[C@H](C(=O)N[C@@H](Cc1ccc(O)cc1)C(N)=O)[C@@H](C)O)C(C)C)[C@@H](C)O
notes: also called 84; compound 84

In the test the target is T1, human amylin receptor (amylin 3(a) …). Briefly: SPA displacement of 125I-rat amylin, hAmylin 3(a) receptor membranes. The procedure, abridged: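 Membranes from BHK Amylin 3(a)/CRE-luc cells (35 ng/μL final) were mixed with SPA beads and test compounds in 50 mM Hepes pH 7.4 with 1 mM CaCl2, 5 mM MgCl₂, 0.1% OA and 0.02% Tween20. Incubation ran 120 min at 25° C with shaking; IC₅₀ came from one-site competition fitting.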
A general note: In a radioligand displacement assay an active substance lowers the binding of a labelled ligand.
For B1, the IC50 came out at 0.048 nM.

Regarding B2, the IC50 was 0.088 nM.

Regarding B3, the concentration for half-maximal inhibition (IC50) turned out to be 0.133 nM.

On to B4, for which the IC50 was 0.122 nM.

In the case of B5, the IC50 came out at 0.29 nM.

Regarding B6, the IC50 was determined as 0.743 nM.

The values above are taken from patent US20140087995A1 (published 2014).
